Measured values as given in the DeepSol protein solubility set.

Experiment: soluble on expression in E. coli; label from the status in PepcDB or PDB records

Row | Sequence | soluble on expression in E. coli
1 | MNDGNSRTPYNSLYKPLNLIKSKPDGCCKHNGQCPYGKNQAESVDDGNSRTPYNSIYEPLSLNKSKPDSQCSNGKKPADDEYVNLLLPQSKEEQVAEKLADKLRKLEVKESKGKRRGSKERKKKKPEPVESTYESLASIEGSTNFSGPVTTESLESNVKCHHASQTAYIGVYSSADAEAQVKNRGEFALYHQFEVGNRLDHLTATLPLMLVYYTTTKKHRHYPVRKSGDNGTVQYSVDCGYPIVRKHFSINQLVLYYKTFGSIQMKQEDICSEEFSWWLE | not soluble
2 | MNDLCVDLGYKSLNKFGEQLCGDMIQVVKDDDTTILVLADGLGSGVKANILSTLTSKIISTMIAAHMGIEECVNTIMSTLPVCKVRGIAYSTFTIIKITNNTYAEIIQYDNPLVILLRNGKKYDYPTQTKIISGKKIVESKIRLNCDDVFVVMSDGAIYAGVGQTLNYGWQRENIIEFIESHYDKSLSANALTSLLIDTCNNLYANMPGDDTTIAAIKIRKRQVVNLMFGPPQNPEDVHNMMSLFFAKQGRHIVCGGTTSTLAAKFLGKELETTIDYIDPRIPPIARIEGVDLVTEGVLTISRVLEYAKDYIGKNILYNEWHSKNDGASIIARMLFEEATDINFYVGKAINPAHQNPNLPIGFNIKMQLVEELSKILKQMGKTINLSYF | not soluble
3 | MNDQELRAYLSQAKTIAVLGAHKDPSRPAHYVPRYLREQGYRVLPVNPRFQGEELFGEEAVASLLDLKEPVDILDVFRPPSALMDHLPEVLALRPGLVWLQSGIRHPEFEKALKEAGIPVVADRCLMVEHKRLFRGPLPL | soluble
4 | MNEEILPILTVKDLNAGYLTNEKYIGIIHNINIELNRGKIVGITGLSGSGKTTLLKSILLETHIKSGEIIFNGKPIMPGDTKNYRRSVIYVPQNSLDSLDIIWPIEDQVKKILKQHNVVYDINKVSEIAKLIDLDISMLKLKSFEVSYGTRHKIVLLMSILMAKRDLVVLMDEPTLSQDAITAEGILNIIVKLAKDYGSSFIIVSSSPEPVFYASDFIYIMYGGWIVENGTPNDLSKWPKHPFTYEFINMLPAHKTRDRFPKFPMTEFSENGCPYSIYCKNKIKGCDSHINMFGEGHKYRCLNPVV | not soluble
5 | MNEKQKRFADEYIMNGCNGKKAAISAGYSKKTAESLASRLLRNVNVSEYIKERLEQIQEERLMSITEALALSASIARGEPQEAYSKKYDHLNDEVEKEVTYTITPTFEERQRSIDHILKVYGAYIDKKEITQKNIEINIGEYDDES | not soluble
6 | MNFLLILTLISIIVRSRQENASMDPCNDFYDYVCTNDTRSITKLNFASLFDDREILKPNISFPNNGTYIALDQILEPDRLMKWYMTVKSLDTATVDLEYFFETHYEYISKKNDSEKFSFAVETLENVNLTLTNIFYNSLYANIKVLNQLNLPAAEENKFLHHISNLLKNNTIEEIWSSSLSNKSKKVLDEELNNSKVFFGLLDYNNVTMLEETKLVYETEYYRLKSLLSSDDLDTEIAEKILRLGAIDTATKYLAKRIPGYEPEFLFSAFASNMENEAFKHNSAIYAGIVTRSDLQQPMLAIADTVSVLAHELMHFVYPSGTELLTPNVTKAAKKCTQDEVKRMGDSDVVKPIDGWFSKKVTHEDLANIMGLRMVMKMVARKSASEEQLKNALETLLSGLCIQGKPKNSILPHHHPFEISINTAVRQYPLFSSLYGCRLGDRMFAEAEQFCKPLGGEVNLEDYKIKNDTEDIGGFFTYIMDTANAFNFSFRN | not soluble
7 | MNFNQFENQNFFNGNPSDTFKDLGKQVFNYFSTPSFVTNIYETDELYYLEAELAGVNKEDISIDFNNNTLTIQATRSAKYKSEQLILDERNFESLMRQFDFEAVDKQHITASFENGLLTITLPKILEHHHHHH | soluble
8 | MNFQEENENIKNDIEINLLHSAEADSVEAMMDLAVYGLAAMVAKHNKTRGEQLVLQAIAGHMRKLLAALPETESLVQTGKVYRRLEDLIFKTYLPEQ | not soluble
9 | MNFRTDSIDDLDKFKKEFKPVMHLKGDAFNQQLQSLINKYPQIQKNMKSEFIAYYDKEKNRETVKNYAWNLQKSINDIMQSYPSTKFVQFYKDDVSPSMVDGNGRLKSDTNVISIEGGKYDENKLEHHHHHH | soluble
10 | MNGIKTGLGITPGEHIISADSALSRNIRQCFCLSCHGRLILQTDAQGAWFEHDLHALSEQQKADCVVLNPEKSHPYIEDMAMFLSPLPVVLEWHCVMCEQFFHGKKFCEACGTGIYCRAVCTKSVYSYQPDLFEDCGGAST | not soluble
11 | MNGQAKIAEPRRLYQQIADQIRELIDVGEFLPGTRLPAERELAQKLGVSRPSLREALIALEIDNTVEIRMGSGVYVSTEALQTTHHTKSLGDSPSELMQARAALEGATIVLAANRMTDETIAALRQILNTMQKEIEAGRKPLDQDRLFHVTIAEQSGNSVLARLVANLFDERHSPISAQLRVKFEDRDTWTRALQEHEAILAALELKDPLLAQAAMHIHLEGSKRRWVDS | soluble
12 | MNHVKKHVLWKDEYFERYYRLNPELVQKRLDKIYQAEDDLMVLISTQLFCFLQANGTLYFDGCYKTGKADNSLLCTNLALWSIELACDHFDIREERGHTTKFSEQGESWLTLFACNQFSLVPYCYPAIQRGFQSGVLKEIVPFYREQKLGILAMEIMARERGDTINWEAMQVRVDPVYLDFCQNILLSSDDELVRTGLITLCDKHLEWTDFHNSDKHCCLTGYEIQRQDLLLWPFEYQAVKNWRARQGLSTPMIEHPLMNSPMTTANCPDFSQWQRPEWFNPLVDFLAQRRPELAFLRHLFI | not soluble
13 | MNIGNITISVIIPVYNASVTLPHCLESLHKQTYRNLELLFVDDCSTDESLYILTSYAEQFAEIDFTIRILQHERNRGVAAARNTALKCATGDYIYYVDADDSIEPHTLECLVNEINHKGLDIVGHEWYLTFNSNARYMKQPAYTTSVEALRKMMGGVMRWNLWLFLVRRSLYVENDIRFTEGLNMGEDMMVMMKLFICAGKVGIVHRPFYHYRQSNPESLTKIYSQEHIIQVANNVYEVEKYVNASAYADSLIEFIPFLKLNIKLPLLITDDKSHYEQWLECFPEANCYVMNNKLLPLRTRIIQWMAVKRYFILLRLYYRTVFKLVYGIIYKLEHHHHHH | not soluble
14 | MNIGSAIREIRQRRGITIAQICEGTGLSKGFMSQVENNKTSPSISTLETISNFLNVPLPYLLLEQKDRLKIVKKEERKYSVYGKDEQRIEHVAEQGGLRLSLVEIPTGFPKENSPNAHEGEECHLVLRGKLEVQHGEDIAIVEEGDSFSWNACVPHIVRNIGEETALLLISSYAENRQRVY | not soluble
15 | MNIHEIRKQFPILDQKVNGKQLVYFDSAATSQKPIQVIETLERYYKEYNSNVHRGVHTLGTKATDAYEGAREKVRKFINAKSMEEIIFTCGTTTALNTVAASYGLENVKEGDEIVISYMEHHSNIIPWQQVAKKTGATLKYLPLQPDGTISIEDARQTITPNTKIVSIMYVSNVLGTINPVKEIGAIAHENGAIMVVDGAQSTPHMKVDVQDLNCDFYALSAHKMCGPTGIGVLYGKKELLNNMEPIEFGGEMIDFVDLQESTWKELPWKFEAGTPIIGNAIGLGAAIDFLEEIGLDNIEKHEHELAQYALERLSEVDGVTIYGPKHRAGLVTFNIEDVHPHDVATVLDVEGIAVRAGHHCAQPLMKWLKASSTARASFYLYNTKEEIDTFVESLIKTKEYFTNVI | not soluble
16 | MNIITLKVAIVEPLPMIRAGLEALLKKITGYKIQFIDAPADNGWVDVISFYCPDVVFMNPLVSGLTRNESDKACPQSRYVGLLTTPIDSNMLHNYDDTLSVHATVEELKQLLERLYQKTLEPEESGEEQQTLTNREKEIVVGVVKGMTNKEIAEELFLSTHTVITHRRNIAKKLQIHSPSGLTIYAIMNKLVNLDEIAH | not soluble
17 | MNILYTVENSIYVNITNTCPCSCVFCIRNEKDEVANSGSLWLEHEPSVDEVKEAFNKYNLDDYDEIVFCGYGEPLMRINELIDVAKFIKEKSSIKIRINTNGLSDLIHNKKTAILLKDVIDAVSISLNAPNKEAYNRVTQPKFGEKSFDYMLDFAKDCKKYIKEVAFSVVDEISPEEIEESKQLAKKLDIPLRVRHKN | not soluble
18 | MNIMITKKAFDWYKRELGLKPGDAIRFFARYGGCSTVQKGFSLGMAKDELVDKPAAQTTVDGITFFIEESDQWYFDGRDLTVDLDEKSDEPVFLVH | not soluble
19 | MNINPFANVSLQDYLEIVQIVDSTFPIGSFNHSFGMENYLREDTVTDDKGYEEWQEAYLASQFKYGEGLVIKLVYDAMVTDNIDQVWYYDKVLTVSTQARETRQGTKMIAKQMLRLIQRLHAIPVLDDYQSKIRKGVAFGNPAIVFALYVFNKGLGCNEAIALYGYSVISTMVQNAVRAIPLGQFAGQEIVLRSFSQLEKMTQEIQELDASYLGANTPGLELAQMKHETQVFRLFMSLEHHHHHH | not soluble
20 | MNINTDIFKIQSNNVMPSRGKILISEPFLHDVTFGRSVVLLVDHTEEGSMGLIINKPLPLMLNDIIKEFKYIEDIPLHKGGPIGTDTLFYLHTLHEIPGTLPINNGLYLNGDFDAIKKYILQGNPIKGKIRFFLGYSGWECEQLIQEIKENTWIISKEENTYLMNEDIKGMWKEALGKLGSKYETWSRFPQVPSLNLEHHHHHH | not soluble
21 | MNIRDLEYLVALAEHRHFRRAADSCHVSQPTLSGQIRKLEDELGVMLLERTSRKVLFTQAGMLLVDQARTVLREVKVLKEMASQQGETMSGPLHIGLIPTVGPYLLPHIIPMLHQTFPKLEMYLHEAQTHQLLAQLDSGKLDCVILALVKESEAFIEVPLFDEPMLLAIYEDHPWANRECVPMADLAGEKLLMLEDGHCLRDQAMGFCFEAGADEDTHFRATSLETLRNMVAAGSGITLLPALAVPPERKRDGVVYLPCIKPEPRRTIGLVYRPGSPLRSRYEQLAEAIRARMDGHFDKVLKQAV | soluble
22 | MNIVITGGTGLIGRHLIPRLLELGHQITVVTRNPQKASSVLGPRVTLWQGLADQSNLNGVDAVINLAGEPIADKRWTHEQKERLCQSRWNITQKLVDLINASDTPPSVLISGSATGYYGDLGEVVVTEEEPPHNEFTHKLCARWEEIACRAQSDKTRVCLLRTGVVLAPDGGILGKMLPPFRLGLGGPIGSGRQYLAWIHIDDMVNGILWLLDNELRGPFNMVSPYPVRNEQFAHALGHALHRPAILRVPATAIRLLMGESSVLVLGGQRALPKRLEEAGFAFRWYDLEEALADVVR | soluble
23 | MNIVSWKDANDEVAGGATTRREREVKEDQEETEVRATSGKTVIKKQPTSISSSSSSWMKSKDPRIVRVSRAFGGKDRHSKVCTLRGLRDRRVRLSVPTAIQLYDLQERLGVDQPSKAVDWLLDAAKEEIDELPPLPISPENFSIFNHHQSFLNLGQRPGQDPTQLGFKINGCVQKSTTTSREENDREKGENDVVYTNNHHVGSYGTYHNLEHHHHHHQHLSLQADYHSHQLHSLVPFPSQILVCPMTTSPTTTTIQSLFPSSSSAGSGTMETLDPRQMVSHFQMPLMGNSSSSSSQNISTLYSLLHGSSSNNGGRDIDNRMSSVQFNRTNSTTTANMSRHLGSERCTSRGSDHHM | soluble
24 | MNKDIETQRFKQQKKWQKYYKFRGQFFLMKKYSKRMIFDRRIKMTTKEKIEFIKQVTPHSDSEVEKIIKGMSDTSINRWYEIEKYRIDQELEEAVLTIYC | not soluble
25 | MNKEQECSKNIFDLPREIVIYHLKSAGIFVFEELDCDDIAQTPLLIMAPSVPLHVRLERTPTINLLKCHEKPLTEDQLFLLLSKCQQHTKKCMPSEEEIDQWVEVSSSKPREQSSNRGSKKDSWNHSIFMYNFFHRRGSNKRAAKYLEKIENGKSEKIRARVSQIRNLDLGYISLPMETINLEDAKQRDKLKEKALAETAESKKGKDILNLFTNVYY | not soluble
